PMC3831237

What was measured:
[1] = target: 2,5-DHP dioxygenase Hpo from Pseudomonas putida S16 (non-His6-tagged) (Pseudomonas putida S16); experiment: SEC + native gel or EMSA
[2] = substrate: O=CNC(=O)/C=C/C(=O)O; experiment: purified protein; settings: 20 mM sodium phosphate pH 6.7, 25 °C

Molecule: 2,5-DHP dioxygenase Hpo from Pseudomonas putida S16 (non-His6-tagged) (enzyme)
- stoichiometry N [1]: 3

B1: Nfo (Pseudomonas putida S16) (protein)
chain: MKGYNVYANGIRQHIIHFPGTGSPLLLIPGITSPAVTWGFVAERLAKYFDVHVVDVRGRGLSESGDLDYSLDAMADDLVALAQRMEGVVVLGHSMGARIAIRAARKDSQVFSRLILVDPPVSGPGRRPYPAKWSWYAESIRLAQRGCTAMEMRSYCPTWTDEQIELRAEWLHTCQYTAVKTAFDGFHTDDIHTDLAQLTLPIQLVVAGGAEVIQPDDIAEIISLAPQTTTYVVEEAGHMIPWDNLEGFITAVSNR
- Km [2]: 5.83 ± 0.46 mM
- kcat [2]: 2.4 ± 0.1 s⁻¹
